The target of experiment [1] is T1, β3 integrin cytoplasmic domain (Homo sapiens, UniProt P05106).
T1 construct: recombinant fusion proteins containing β3 or β5 cytoplasmic domains
T1 sequence (P05106 742-788 limits assumed): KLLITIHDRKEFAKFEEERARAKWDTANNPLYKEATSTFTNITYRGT
The experiment can be described thus: Phage binding to immobilized GST-β3cyto. As for the experimental part:
FIG. 9. Binding of β3 cytoplasmic domain-selected phage to immobilized proteins. GST fusion proteins or GST alone were coated on microtiter wells at 10 μg/ml and used to bind phage expressing endostatin targeting peptides. […] The data represent the mean colony counts from triplicate wells, with standard error of less than 10% of the mean.
β3 and β5 cytoplasmic domain-binding peptides were isolated by screening multiple phage libraries with recombinant GST fusion proteins that contained either GST-β3cyto or GST-β5cyto coated onto microtiter wells. Immobilized GST was used as a negative control for enrichment during the panning of each cytoplasmic domain. Phage were sequenced from randomly selected clones after three rounds of panning as disclosed elsewhere (Koivunen et al., 1995; Pasqualini et al., 1995). Distinct sequences were isolated that interacted specifically with the β3 or with the β5 cytoplasmic domains (Table 9). Randomly selected clones from panning rounds II and III were sequenced. […] The ratios were calculated by dividing the number of colonies recovered from β3-GST-coated wells and those recovered from GST or BSA.
The specificity of the interaction with β3 or β5 cytoplasmic domains was determined by calculating the ratios between the number of phage bound to the cytoplasmic domain containing-fusion proteins (β3 or β5) versus GST alone (negative control). […]

For a further experiment, the target named is T2, GST-β3 integrin (Homo sapiens, UniProt P05106).
T2 construct: recombinant fusion proteins containing β3 or β5 cytoplasmic domains
T2 sequence (P05106 742-788 limits assumed): T1 sequence (P05106 742-788 limits assumed)
The experiment can be described thus: Annexin V binding to GST-β3 cytoplasmic domain (ELISA). The following applies: FIG. 20A. As for the experimental part: (§1) Competitive binding assays were performed to examine the binding of Annexin V to β5 integrin and the effect of the VISY peptide. Plates were coated with GST fusion proteins of the cytoplasmic domains of various integrins and Annexin V was added to the plates. Binding of Annexin V was determined using anti-Annexin V antibodies. […] Calcium was used because Annexin V activity has been reported to be modulated by calcium. Binding of Annexin V to GST-β5 was blocked by addition of the VISY peptide (FIG. 20A).
In general terms: An ELISA detects its analyte on a solid surface through an enzyme-linked reagent.

For a further experiment, the target named is GST-β1 integrin (Homo sapiens, UniProt P05556). The experiment is described as follows: Annexin V binding to GST-β1 cytoplasmic domain (ELISA). The following applies: FIG. 20A. As for the experimental part:
as §1

A further experiment concerns the target T3, GST-β5 integrin (Homo sapiens, UniProt P18084).
T3 construct: Plates were coated with GST fusion proteins of the cytoplasmic domains of various integrins and Annexin V was added to the plates
T3 sequence (P18084 743-799 limits assumed): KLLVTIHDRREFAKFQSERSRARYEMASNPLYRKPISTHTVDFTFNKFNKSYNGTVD
The experiment can be described thus: Annexin V binding to GST-β5 cytoplasmic domain (ELISA), competition with VISY peptide. Here is the method: as §1
A reciprocal study was performed, using Annexin V to coat plates and adding GST fusion proteins of integrin cytoplasmic domains. Binding was assessed using anti-GST fusion protein antibodies. […] In some studies, calcium ion appeared to interfere with the binding interaction between GST-β5 and Annexin V, with decreased binding observed in the presence of calcium (not shown).

Another experiment concerns endothelial cells. The experiment is described as follows: Endothelial cell migration (chemotaxis) assay with penetratin peptide chimeras. The following applies: VEGF-A 20 ng/ml, 5 h, FIG. 16. It counts as cell-based, human. As for the experimental part:
FIG. 16. Effect of penetratin peptide chimeras on endothelial cell migration. Cell migration assay were performed in a 48-well microchemotaxis chamber. Five random high-power fields (magnitude 40×) were counted in each well.
Cell migration assays were performed as follows: 48-well microchemotaxis chambers were used. Polyvinylpyrrolidone-free polycarbonate filters (Nucleopore, Cambridge, Mass.) with 8-μm pores were coated with 1% gelatin for 10 min at room temperature and equilibrated in M199 medium supplemented with 2% FCS. Peptides were placed in the lower compartment of a Boyden chamber in M199 supplemented with 2% FCS, 20 ng/ml VEGF-A (R&D System), and 1 U/ml heparin. Overnight-starved subconfluent cultures were quickly trypsinized, and resuspended in M199 containing 2% FCS at a final concentration of 2×10^6 cells/ml. After the filter was placed between lower and upper chambers, 50 μl of the cell suspension was seeded in the upper compartment. Cells were allowed to migrate for 5 h at 37° C. in a humidified atmosphere with 5% CO2. The filter was then removed, and cells on the upper side were scraped with a rubber policeman. […] Five random high-power fields (magnitude 40×) were counted in each well.
Cell migration was assayed in a 48-well microchemotaxis chamber. […] Five random high-power fields (magnitude 40×) were counted in each well.

For experiment [2], the target named is T4, β5 integrin cytoplasmic domain (Homo sapiens, UniProt P18084).
T4 construct: the screenings involving the β5 cytoplasmic domain fusion protein
T4 sequence (P18084 743-799 limits assumed): T3 sequence (P18084 743-799 limits assumed)
The experiment can be described thus: Binding of Fyn-phosphorylated phage to β5 cytoplasmic domain. Here is the method:
Phosphorylation of peptide libraries with src family protein kinases (Fyn, c-Src, Lyn, and Syc) and serine/threonine kinases such as a MAP kinase were performed as described previously (Schmitz et al., 1996; Dente et al., 1997; Gram et al., 1997). Briefly, phage particles were collected from culture supernatants by double precipitation with 20% polyethylene glycol 8000 in 2.5 M NaCl. Particles were dissolved at 10^12 particles/ml. Purified phage (10 μl) were incubated for 3 hours at room temperature with different concentrations (35 to 3,500 units) of protein kinases in a reaction buffer volume of 50 μl. The reaction mixtures were transferred to tubes containing 10 μg of agarose-conjugated anti-P-Tyr, anti-P-Ser, or anti-P-Thr monoclonal antibodies to select phage displaying phosphorylated peptides. […] Phosphorylated peptides binding to β3 and β5 cytoplasmic domains were analyzed as described in the previous section.
Randomly selected clones from rounds III and IV were sequenced from a X4YX4 phosphorylated library with Fyn. […] The ratio of binding to β3 or β5 was calculated by dividing the number of β3 or β5 colonies by GST or BSA colonies found after panning. The ratio of binding to β3 or β5 with phosphorylated phage by Fyn versus unphosphorylated phage was calculated by dividing the number of colonies found after the panning. […]

For a further experiment, the system named is HUVEC cells. The experiment is described as follows: Apoptosis assay (propidium iodide staining, subdiploid population). The settings on record: 15 μM, 4 hours, FIG. 17. It counts as cell-based, human. Here is the method: FIG. 17. Penetratin peptide chimera binding to the β5 cytoplasmic domain induces programmed cell death. 10^6 HUVEC cells were harvested in complete media and 15 μM penetratin peptide chimeras were added to the cells.
Approximately 1×10^6 cells were harvested in complete media and 15 μM of peptide added for 4, 8, or 12 h. The cells were then washed in PBS and resuspended in 0.5 ml propidium iodide solution (50 μg/ml PI, 0.1% Triton X-100, 0.1% sodium citrate). After a 24-h incubation at 4° C., cells were counted with a XL Coulter (Coulter Corporation) with a 488-nm laser; 12,000 cells were counted for each histogram, and cell cycle distributions were analyzed with Multicycle program.
Approximately 1×10^6 cells were harvested in complete medium, and 15 μM of peptide was added for 4, 8, or 12 hours. The cells were then washed in PBS and resuspended in 0.5 ml propidium iodide solution (50 μg/ml PI, 0.1% Triton X-100, 0.1% sodium citrate). After a 24-h incubation at 4° C., the cells were counted with an XL Coulter (Coulter Corporation) with a 488 nm laser; 12,000 cells were counted for each histogram, and cell cycle distributions were analyzed with the Multicycle program.

The next experiment deals with HUVEC. The experiment is described as follows: Apoptosis by chromatin fragmentation (agarose gel) in HUVEC. It counts as cell-based, human. The settings on record: 15 μM, 2-4 hours, FIG. 21. As for the experimental part:
10^6 HUVEC were treated with 15 μM of VISY antennapedia (penetratin) chimera or 15 μM of antennapedia peptide (pentratin) alone for 2-4 hours and chromatin fragmentation was analyzed by electrophoresis in an agarose gel.

The test system of a further experiment is mouse spleen cells. The experiment can be described thus: In vitro binding of Fab phage clones to spleen cells by BRASIL. It counts as cell-based. Here is the method: A singe cell suspension was prepared from two mouse spleens. The suspension was divided into five tubes and incubated on ice with 3×10^9 TU of Fab clones #2, #6, #10, #12 and 2×10^9 TU tet-phage. Phage bound to mouse spleen cells were recovered by BRASIL. 200 μl of log phase ER2537 E. coli was infected with the pellet and serial dilutions were plated on LB/carbenicillin and LB/tetracyclin plates for assessment of phage binding. Fd-tet was used as an internal control to normalize all the phage homing experiments.

The next experiment relates to mouse spleen. The experiment is described as follows: In vivo spleen targeting of Fab phage clones by BRASIL. The settings on record: 5 minutes circulation, FIG. 5.

Ends that are not written are not given here.

Chain of GST-β1 integrin (P05556 752-798 limits assumed): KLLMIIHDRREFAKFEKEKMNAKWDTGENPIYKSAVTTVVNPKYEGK

Take AGWLYMSWK: the “β3/BSA Ratio” value in [1] (colonies from β3-GST-coated wells divided by those from BSA) was determined as 2.4. Further, in experiment [1] (colonies from β3-GST-coated wells divided by those from GST), the “β3/GST Ratio” value is listed as 1.8.
Turning to “Annexin V: 36 kDa endogenous protein analog of the VISY peptide, ligand of β5 integrin cytoplasmic domain”, the “binding of Annexin V to GST-β3 integrin” value with GST-β3 integrin is given as “did not bind”. Further, the “binding of Annexin V to GST-β1 integrin” value in the experiment with GST-β1 integrin is “did not bind”. Further, the “binding of Annexin V to GST-β5 integrin” value with GST-β5 integrin (FIG. 20A) is “bound strongly”; with GST-β5 integrin (Tris-buffered saline (TBS)) it was “Low binding”; with GST-β5 integrin (cytoplasmic buffer with or without added calcium (2 mM)) it was “high binding”.
For the molecule “GLDTYRGSP [TYR-11 tested as penetratin chimera]”, the “effect on endothelial cell migration” value in the experiment on endothelial cells is given as “increase cell migration”.
Turning to “SDNRYIGSW [Y-18 tested as penetratin chimera]”, the “effect on endothelial cell migration” value in the experiment on endothelial cells was “increase cell migration”.
With TLRKYFHSS, the “β3 or β5/GST” value in experiment [2] (X4YX4 library phosphorylated with Fyn) worked out at 5.6.
In [2] (phage phosphorylated by Fyn versus unphosphorylated phage), TMLRYFMFP gave a Phos/Unphos of 4.2.
Consider “VISY-penetratin chimera: chimeric peptide containing VISY peptide (VVISYSMPD) linked to penetratin (antennapedia), plus a biotin moiety (VVISYSMPDRQIKIWFQNRRMKWKK; also: plus a biotin moiety, site not given here)”, for which the “induction of apoptosis (PI staining)” value in the experiment with HUVEC cells is recorded as “induction of apoptosis”. Besides, the “induction of apoptosis (chromatin fragmentation)” value in the experiment on HUVEC was “induction of apoptosis”.

B1: Fab clone #6: chicken Fab phage clone from α-spleen library, localized in mouse spleen (protein)
scFv: CQPAMAAVTLDESGGGLQTPGGTLSLVCKASGISIGYGMNWVRQAPGKGLEYVASISGDGNFAHYGAPVKGRATISRDDGQNTVTLQLNNLR
modifications: Fab format
For the molecule B1, the “binding to mouse spleen cells compared to Fd-tet insertless control phage” value in the experiment with mouse spleen cells (FIG. 3) is “lowest degree of differential binding”. In the experiment on mouse spleen cells (FIG. 4), the “binding to mouse spleen cells, direct comparison with NPC-3TT” value is on record as “only slightly higher than the binding of phage NPC-3TT”. In the experiment with mouse spleen, the “binding to spleen compared to Fd-tet phage” value is recorded as “many-fold increased binding to spleen”.
